The values that follow come from patent publication US5854005A, “Platelet blockade assay” (Mount Sinai School of Medicine, priority 1996, dated 1998).

The target of data set [1] is T1, GPIIb/IIIa receptor (Homo sapiens, UniProt P05106+P08514).
T1 construct: GP IIb/IIIa receptor proteins, which are found on the cell surface of platelets; endogenous in cells; host or cells: platelets in citrated whole blood of donors
The data set can be described thus: Fibrinogen-coated bead agglutination whole blood assay with activating peptide. Set-up: key to agglutination assay result: the assay remained positive (i.e., 1-4+); The assay became negative (i.e., O+). Particulars: for agglutination assay result: 2 μM activating peptide. The format is cell-based. On the procedure:
Blood (9 volumes) is drawn from a patient by syringe and placed into standard blue-top tube containing sodium citrate (1 volume of 3.8% sodium citrate). Alternatively, blood may be drawn by Vacutainer directly into a blue-top tube. The tube is then inverted to mix the anticoagulant with the whole blood. Then 70 μl of this mixture is added to an assay tube containing 100 μl of buffer (0.15M NaCl, 0.5 mM CaCl2, 0.01M HEPES, pH 7.4), 10 μl of well-mixed fibrinogen coated beads prepared by the method of Example 1, and 5-10 µl of isoSer-Phe-Leu-Leu-Arg-Asn (SEQ ID NO:3).
The assay tube is then placed on a rocker and rocked at 20 cpm at room temperature for two minutes. The tube is removed from the rocker, held vertically to allow the blood to drain and viewed. If less than 80% of GPIIb/IIIa receptor blockade has been achieved in the patient's blood, agglutinated beads are readily seen in the streak marking where the blood tilted back and forth.
(§1) Purified peak I-2 fibrinogen is coupled to 3 μm, blue carboxylated beads (obtained from Polysciences, Inc.) using a water soluble carbodiimide (EDC) by the method of Example 1. The assay is conducted by adding to a 12×75 mm glass test tube: 100 μl of buffer, 20 μl of beads (2.5% slurry), and 5 μl of isoSer-Phe-Leu-Leu-Arg-Asn. Blood is collected into citrate anticoagulant and 70 μl of the whole blood is added to the test tube, which is then capped, placed on a rocking platform, and rocked at 16 cycles/min. When normal blood was tested using 1 or 2 μM activating peptide, a 4+ agglutination endpoint was easily observed in all donors (n=10) by 2 min. […] Using 2 μM activating peptide, the assay remained positive (i.e., 1-4+) at c7E3 Fab concentrations of 0.8 (n=1), 1.2 (n=1), 1.5 (n=3), and 1.8 (n=2) μg/ml, corresponding to GPIIb/IIIa receptor blockade of 56%; 77%; 68, 68, and 82%; and 66 and 73%. The assay became negative (i.e., O+) at c7E3 Fab concentrations of 1.2 (n=1), 1.5 (n=1), 1.8 (n=3) and 2.4 (n=2) μg/ml, corresponding to GPIIb/IIIa receptor blockade of 77%; 92%; 83, 88 and 94%; and 88 and 89%. […] The percentage of receptor blockade was assayed by radiolabeled 7E3 binding as reported in Coller et al., N.Y. Acad. Sci., 614:193 (1993).

For data set [2], the system named is aminopeptidase M. The following applies: in the presence of aminopeptidase M; cited from earlier work.
A further data set deals with thrombin receptor. The following applies: cited from earlier work.
For data set [3], the system named is aminopeptidase M. Particulars: incubated in plasma; cited from earlier work.
Data set [4] deals with T1, GPIIb/IIIa receptor. The data set can be described thus: GPIIb/IIIa receptor blockade assayed by radiolabeled 7E3 binding. As for the experimental part: as §1
The target of data set [5] is T1, GPIIb/IIIa receptor. The following applies: cited from earlier work.
The mark [6] stands for this setting: blood pretreated with c7E3 Fab at 5 doses between 0.8-3.0 μg/ml for about 10 minutes at 22° C.

Where “and” joins values, the source holds several entries; their conditions need not be identical. Identical values can stand only once.

As for `CC(=O)Oc1ccccc1C(=O)O` [Aspirin, reference compound], the “effect on the agglutination assay results” value at GPIIb/IIIa receptor [1] (Aspirin 1 mM) is “did not appreciably affect the results”.

For the compound `CC(C)C[C@@H](N)[C@H](O)C(=O)N[C@H](C(=O)N[C@H](C(=O)N[C@@H](CC(=O)O)C(=O)O)C(C)C)C(C)C` [amastatin], the “effect on platelet aggregation” value in the data set on aminopeptidase M [2] is given as “enhance platelet aggregation”.

On to “T-11: eleven amino acid peptide lacking the three C-terminal amino acids of T-14 (SFLLRNPNDKY)”, for which, in the data set with thrombin receptor, the “platelet activation activity relative to T-6” value is listed as ~ 20% and the “potency relative to T-14” value was “twice as potent as T-14”. Also, in the data set on aminopeptidase M [3], the “ability to induce aggregation after incubation in plasma” value is given as “lose their ability to induce aggregation”.

As to “T-14: fourteen amino acid peptide corresponding to the new N-terminus of the cleaved thrombin receptor protein (SFLLRNPNDKYEPF)”, the platelet aggregating activity result in the data set on thrombin receptor was “capable of aggregating platelets directly”. The “ability to induce aggregation after incubation in plasma” value in the data set with aminopeptidase M [3] is “lose their ability to induce aggregation”.

For the compound “c7E3 Fab: GPIIb/IIIa receptor blocking agent, monoclonal antibody c7E3 Fab”, the agglutination assay result in the data set with GPIIb/IIIa receptor [1] (c7E3 Fab 0.8 μg/ml) is given as “positive”; with GPIIb/IIIa receptor [1] (c7E3 Fab 2.4 μg/ml), “negative”. Also, the agglutination of beads entry in the data set with GPIIb/IIIa receptor [1] (setting [6]) was “elimination of agglutination”. In the data set with GPIIb/IIIa receptor [4] (setting [6]), the “GPIIb/IIIa receptor blockade (trend)” value was “increasing GPIIb/IIIa receptor blockade”. For the same compound, the GPIIb/IIIa receptor blockade is 56% in the data set with GPIIb/IIIa receptor [4] (c7E3 Fab 0.8 μg/ml, samples with positive agglutination assay); 77% with GPIIb/IIIa receptor [4] (c7E3 Fab 1.2 μg/ml, samples with negative agglutination assay); 77% with GPIIb/IIIa receptor [4] (c7E3 Fab 1.2 μg/ml, samples with positive agglutination assay); 92% with GPIIb/IIIa receptor [4] (c7E3 Fab 1.5 μg/ml, samples with negative agglutination assay); 68% and 82% with GPIIb/IIIa receptor [4] (c7E3 Fab 1.5 μg/ml, samples with positive agglutination assay); 83% and 88% and 94% with GPIIb/IIIa receptor [4] (c7E3 Fab 1.8 μg/ml, samples with negative agglutination assay). The GPIIb/IIIa receptor blockade was 66% and 73% in the data set with GPIIb/IIIa receptor [4] (c7E3 Fab 1.8 μg/ml, samples with positive agglutination assay); 88% and 89% in the data set with GPIIb/IIIa receptor [4] (c7E3 Fab 2.4 μg/ml, samples with negative agglutination assay). The bleeding times result with GPIIb/IIIa receptor [5] (blockade of about 80% or more of GPIIb/IIIa receptors, often to times greater than thirty minutes) is listed as “prolongs the bleeding times”. In addition, the platelet aggregation entry in the data set with GPIIb/IIIa receptor [5] (blockade of about 80% or more of an individual's GPIIb/IIIa receptors) is given as “abolishes platelet aggregation”. Also, the antithrombotic effect result with GPIIb/IIIa receptor [5] (patient with a platelet count greater than 900,000/μl, standard dose) was “virtually no antithrombotic effect”.

As to heparin [reference compound], at GPIIb/IIIa receptor [1] (heparin 3.5 U/ml), the “effect on the agglutination assay results” value is “did not appreciably affect the results”.
